Experimental data taken from patent US7252958 (Novartis, dated 2007).

Target: the molecule itself
Assay: X-ray crystal structure of CD81-LEL

B1: CD81-LEL (large extracellular loop of human CD81, amino acids 113-201) with C-terminal His-tag (receptor)
chain: FVNKDQIAKDVKQFYDQALQQAVVDDDANNAKAVVKTFHETLDCCGSSTLTALTTSVLKNNLCPSGSNIISNLFKEDCHQKIDDLFSGKHHHHHH
notes: Made in E. coli as a fusion with S. aureus Protein A and released by protease (thrombin) cleavage; it forms a homodimer in the crystal, with two chains per asymmetric unit; also called LEL-(His)6; hCD81-LEL
binding result: binds
